Paper PMC2903825

Molecular target: unmodified guanylate-binding protein 1 (hGBP1) (human) (UniProt P32455)
Experiment: concentration-dependent GTPase activity

With “unmodified guanylate-binding protein 1 (hGBP1) (from UniProt P32455 1-592) (enzyme)” the Kd was 4 µM.
